In publication PMC7755189, “Phosphorylation of seryl-tRNA synthetase by ATM/ATR is essential for hypoxia-induced angiogenesis”:

Molecular target: SerRS AA (Homo sapiens, UniProt P49591 1-514, S101A;S241A)
Test: EMSA; not attenuated relative to WT; EMSA: 20 mM Tris-HCl pH 8.0, 60 mM KCl, 5 mM MgCl2, 0.1 mg/mL BSA, 10 ng/uL poly(dG-dC), 1 mM DTT, 30 min, room temperature; 0.08 pmol labeled DNA; 5% native PAGE
Settings: protein: recombinant; tags: C-terminal His6; chain copies: 2; label: 5'-32P; annealed oligonucleotides

Chain of SerRS AA (P49591 whole entry S101A/S241A): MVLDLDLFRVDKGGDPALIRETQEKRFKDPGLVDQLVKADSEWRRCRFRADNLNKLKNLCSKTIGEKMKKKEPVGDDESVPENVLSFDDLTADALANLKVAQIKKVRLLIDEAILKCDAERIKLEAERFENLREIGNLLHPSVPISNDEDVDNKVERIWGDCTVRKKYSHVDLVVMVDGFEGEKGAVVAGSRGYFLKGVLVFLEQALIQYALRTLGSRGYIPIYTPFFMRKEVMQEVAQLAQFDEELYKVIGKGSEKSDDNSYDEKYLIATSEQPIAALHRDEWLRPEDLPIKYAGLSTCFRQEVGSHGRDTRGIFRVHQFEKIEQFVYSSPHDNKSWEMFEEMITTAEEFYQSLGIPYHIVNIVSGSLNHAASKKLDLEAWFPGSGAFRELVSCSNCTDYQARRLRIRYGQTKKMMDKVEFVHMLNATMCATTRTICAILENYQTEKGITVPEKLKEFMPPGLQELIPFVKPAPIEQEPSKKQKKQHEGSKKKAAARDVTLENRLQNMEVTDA

B1: VEGFA promoter SerRS binding site 27 bp (dsDNA)
DNA 1: GGCGGGGCGGAGCCATGCGCCCCCCCC
DNA 2: GGGGGGGGCGCATGGCTCCGCCCCGCC
binding result: binds
